From patent publication US20230272086A1 (CHIA TAI TIANQING PHARMACEUTICAL GROUP, published 2023)

Assays:
[1] = target: recombinant protein containing hST2 extracellular domain with human antibody heavy chain Fc tag (hST2-ECD-hFc) (human); test: competition ELISA, coated hST2-ECD-hFc, antibody then biotin-labeled hIL33 Avitag (competitor)
Procedure: Whether the anti-ST2 antibodies were able to block the binding of hIL33 to hST2 was determined based on ELISA. A high-adsorption 96-well plate was coated with 2 µg/mL hST2-ECD-hFc at 100 µL/well and incubated overnight at 4° C. After the antigen not adsorbed was well washed off, the non-specific binding sites were blocked with a blocking buffer (PBST containing 1% bovine serum albumin). After the plate was washed three times with a washing buffer (PBST, PBS containing 0.05% (v/v) Tween 20), the anti-ST2 antibodies (serially diluted 2-fold from an initial concentration of 66.67 nM to 8 concentrations) were added at 100 µL/well, and the plate was incubated at 37° C. for 1 h After the plate was washed 3 times with the washing buffer, 100 µL of biotin-labeled hIL33 Avitag (with a concentration of 0.1 µg/mL) was added to each well, and the plate was incubated at 37° C. for 1 h. After the plate was washed 3 times with the washing buffer, a 1:1000 diluted secondary antibody Avidin HRP (Jackson immunoresearch, 016-030-084) was added at 100 µL/well, and the plate was incubated at room temperature for 1 h After the plate was washed with the washing buffer, the substrate TMB solution (Thermo, 00-4201-56) was added at 100 µL/well, and the plate was incubated at room temperature for 3 min. 50 µL of a stop solution (2 N H₂SO₄) was added to terminate the reactions. Colorimetric signals were generated and read at 450 nm using a plate reader (PE, Envision). The data were analyzed using GraphPad Prism5, and the IC₅₀ values were calculated.
The humanized antibodies hz31C81-1.1 (the amino acid sequence of the heavy chain set forth in SEQ ID NO: 75 and the amino acid sequence of the light chain set forth in SEQ ID NO: 81) and hz31C8-1.2 (the amino acid sequence of the heavy chain set forth in SEQ ID NO: 77 and the amino acid sequence of the light chain set forth in SEQ ID NO: 81) were subjected to affinity, binding, blocking and cell function analyses using the methods described in Example 4, Example 5, Example 6, Example 7, Example 8, Example 9 and Example 10.

[2] = target: T1, human ST2 (hST2, Interleukin-1 receptor-like 1 isoform A) on cells (human, UniProt Q01638 19-556); test: cell-based or functional assay
T1 sequence: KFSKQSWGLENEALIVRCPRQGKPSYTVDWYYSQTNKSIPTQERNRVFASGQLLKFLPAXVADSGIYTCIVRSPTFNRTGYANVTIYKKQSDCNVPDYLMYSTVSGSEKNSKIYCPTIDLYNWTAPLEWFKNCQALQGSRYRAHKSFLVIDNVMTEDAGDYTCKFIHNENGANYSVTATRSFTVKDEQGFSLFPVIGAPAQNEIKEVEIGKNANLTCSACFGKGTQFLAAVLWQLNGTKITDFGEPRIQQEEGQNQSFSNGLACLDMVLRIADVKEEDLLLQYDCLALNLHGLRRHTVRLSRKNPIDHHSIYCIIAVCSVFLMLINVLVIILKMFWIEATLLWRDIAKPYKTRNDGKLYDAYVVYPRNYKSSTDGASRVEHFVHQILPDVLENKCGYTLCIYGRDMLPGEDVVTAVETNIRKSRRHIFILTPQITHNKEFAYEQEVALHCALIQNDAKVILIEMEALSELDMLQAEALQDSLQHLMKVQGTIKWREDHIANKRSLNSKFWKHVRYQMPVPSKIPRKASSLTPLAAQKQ

[3] = target: T1, human ST2 (hST2, Interleukin-1 …); test: cell-based or functional assay; remark: listed apart in the source
[4] = target: T1, human ST2 (hST2, Interleukin-1 …); test: flow cytometry on HEK293T-hST2-NFκB-Luciferase cells
Procedure: 3 × 10⁵ HEK293T-hST2-NFκB-Luciferase or HEK293T-Cyno-ST2-NFκB-Luciferase cells were added to a 96-well culture plate. Serially diluted anti-ST2 antibodies (serially diluted 4-fold from an initial concentration of 667 nM to 8 concentrations in binding assays with the HEK293T-hST2-NFκB-Luciferase cells; serially diluted 4-fold from an initial concentration of 400 nM to 8 concentrations in binding assays with the HEK293T-Cyno-ST2-NFκB-Luciferase cells) were added to the cell suspensions. After the plate was incubated at room temperature for 60 min, the cells were washed 3 times with PBS. […] The cells were washed 3 times with PBS and resuspended in 100 µ1L of PBS, and then the fluorescence signals were analyzed and detected using a flow cytometer (BD, Accuri C6). The binding capacity of the anti-ST2 antibodies to hST2 and cyno-ST2 on the cell line surfaces was measured in terms of the mean fluorescence intensity (MFI) of staining. The data were analyzed using GraphPad Prism5, and the EC₅₀ values were calculated. The EC₅₀ values for the binding of the anti-ST2 chimeric antibodies to hST2 and Cyno-ST2 at the cellular level are shown in Table 8 and FIGS. 7-8.
The humanized antibodies hz31C81-1.1 (the amino acid sequence of the heavy chain set forth in SEQ ID NO: 75 and the amino acid sequence of the light chain set forth in SEQ ID NO: 81) and hz31C8-1.2 (the amino acid sequence of the heavy chain set forth in SEQ ID NO: 77 and the amino acid sequence of the light chain set forth in SEQ ID NO: 81) were subjected to affinity, binding, blocking and cell function analyses using the methods described in Example 4, Example 5, Example 6, Example 7, Example 8, Example 9 and Example 10. In the present disclosure, “hz” and “xi” denote humanized antibodies and chimeric antibodies, respectively; for example, “hz31C81-1.1” and “hz31C81-1.2” represent humanized 31C81-1.1 and 31C81-1.2 antibodies, and “xi31C8” represents a chimeric 31C8 antibody.

[5] = target: T1, human ST2 (hST2, Interleukin-1 …); test: cell-based or functional assay; remark: listed apart in the source

B1: RG6149 (antibody Ab2 in CN104334582, prepared in-house) (antibody, human IgG2, kappa, V domains shown)
VH: EVQLVQSGAEVKKPGESLKISCKGSGYSFTNYWIGWVRQMPGKGLEWMGIIYPGNSDTRFSPSFQGQVTISADKSITTAYLQWSSLKASDTAMYYCARHGTSSDYYGLDVWGQGTTVTVSS
VL: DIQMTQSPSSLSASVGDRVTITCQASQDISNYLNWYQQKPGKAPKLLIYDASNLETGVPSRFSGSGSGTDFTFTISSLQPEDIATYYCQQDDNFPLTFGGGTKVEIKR
notes: Control anti-ST2 antibody
[1]
  IC50: 2.15 nM
[2]
  IC50, blocking of the IL33/ST2 signaling (NFκB luciferase reporter, HEK293T-hST2-NFκB-Luciferase cells, 50 pM hIL33 protein SEQ ID NO: 8): 11.9 nM
[3]
  IC50, blocking of the IL33/ST2 signaling (NFκB luciferase reporter, HEK293T-hST2-NFκB-Luciferase cells): 84.3 nM
  IC50, blocking of the IL33/ST2 signaling (NFκB luciferase reporter, KU812-NFκB-Luciferase cells naturally expressing hST2, 200 pM hIL33): 47 pM
[4]
  EC50: 0.581 nM
[5]
  IC50, blocking of the IL33/ST2-induced IL5 secretion on CD4+ T cells (hIL33 plus IL2 co-stimulation): 1.82 nM

B2: GSK3772847 (antibody STLM208 in CN104411333, prepared in-house) (antibody, human IgG2, kappa, V domains shown)
VH: EVQLLESGGGLVQPGGSLRLSCAASGFTFSIYDMIWVRQAPGKGLEWVSSIRGEGGGTYYADSVKGRFTISRDNSKNTLYLQMNSLRAEDTAVYYCARDPWSTEGSFFVLDYWGQGTLVTVSS
VL: EIVLTQSPATLSLSPGERATLSCRASQSVDDDLAWYQQKPGQAPRLLIYDASNRATGIPARFSGSGSGTDFTLTISSLEPEDFAVYYCQQYITAPLTFGQGTKVEIKR
notes: Control anti-ST2 antibody
[1]
  IC50: 2.53 nM
[3]
  IC50, blocking of the IL33/ST2 signaling (NFκB luciferase reporter, HEK293T-hST2-NFκB-Luciferase cells): 29.2 nM
  IC50, blocking of the IL33/ST2 signaling (NFκB luciferase reporter, KU812-NFκB-Luciferase cells naturally expressing hST2, 200 pM hIL33): 0.111 nM
[4]
  EC50: 0.676 nM
[5]
  IC50, blocking of the IL33/ST2-induced IL5 secretion on CD4+ T cells (hIL33 plus IL2 co-stimulation): 0.794 nM

B3: Chimeric 31C8 (antibody, human IgG2, kappa, V domains shown)
VH: QVQLQQSGPELVRPGASVTLSCKASGYIFIDSEMHWVKQTPVHGLEWIGAIDPETGDTVYNQKFKGKATLTADKSSSTASMELSSLTSEDSAVYYCTGSTTDYYFAYWGQGTTLTVSS
VL: DIVMTQAAFSNPVTLGTSASISCRSSKSLLHSNGIIYLYWYLQKPGQSPQLLIYQMSNLASGVPDRFSSSGSGTDFTLRISRVEAEDVGVYYCAQNLELPFTFGSGTKLEIKR
notes: also called xi31C8
[1]
  IC50: 1.93 nM
[2]
  IC50, blocking of the IL33/ST2 signaling (NFκB luciferase reporter, HEK293T-hST2-NFκB-Luciferase cells, 50 pM hIL33 protein SEQ ID NO: 8): 2.53 nM
[3]
  IC50, blocking of the IL33/ST2 signaling (NFκB luciferase reporter, HEK293T-hST2-NFκB-Luciferase cells): 15.6 nM
  IC50, blocking of the IL33/ST2 signaling (NFκB luciferase reporter, KU812-NFκB-Luciferase cells naturally expressing hST2, 200 pM hIL33): 16 pM
[4]
  EC50: 0.405 nM
[5]
  IC50, blocking of the IL33/ST2-induced IL5 secretion on CD4+ T cells (hIL33 plus IL2 co-stimulation): 0.44 nM

B4: Chimeric 3C6 (antibody, human IgG2, kappa, V domains shown)
VH: QVQLQQSGAEVVRPGASVTLSCKASDYTITDYEMHWVKQTPVHGLEWIGAIDPETGDTAYSQNFKGKATLTADESSSTAYMELSSLTSEDSAVYYCSRSATDYYFASWGQGTTLTVSS
VL: DIVMTQAAISNPVTLGTSASMSCRSSKSLLHSNGITYLYWYLQKPGHSPQLLIYQMSNLASGVPDRFSSSGSGTDFTLKISRVEAEDVGVYYCAQNLELPFTFGSGTKLEIKR
notes: also called xi3C6
[2]
  IC50, blocking of the IL33/ST2 signaling (NFκB luciferase reporter, HEK293T-hST2-NFκB-Luciferase cells, 50 pM hIL33 protein SEQ ID NO: 8): 0.673 nM

B5: Chimeric 26A1 (antibody, human IgG2, kappa, V domains shown)
VH: QVQLQQSGAELVRPGASVTLSCKASDYIFTDSEIHWVKQTLVHGLEWIGAIDPETGDTAYNQKFKGKATLTADKSSSTAYMELSSLTSEGSAVYYCSGSTTDCYFAYWGQGTTLTVSS
VL: DIVMTQAAFSNPVTLGTSASISCRSSKSLLHSNGIIYLYWYLQKPGQSPQLLIYQMSNLASGVPDRFSSSGSGTDFTLRISRVEAEDVGVYYCAQNLELPFTFGSGTKLEIKR
notes: also called xi26A1
[2]
  IC50, blocking of the IL33/ST2 signaling (NFκB luciferase reporter, HEK293T-hST2-NFκB-Luciferase cells, 50 pM hIL33 protein SEQ ID NO: 8): 7.57 nM

B6: Humanized 31C8-1.1 (antibody, human IgG2, kappa, V domains shown)
VH: EVQLVQSGAEVKKPGATVKISCKASGYIFIDSEMHWVQQAPGKGLEWMGAIDPETGDTVYAEKFQGRVTITADKSSSTAYMELSSLRSEDTAVYYCTGSTTDYYFAYWGQGTLVTVSS
VL: DIQMTQSPSSLSASVGDRVTITCRSSKSLLHSNGIIYLYWYQQKPGKAPKLLIYQLSNLASGVPSRFSSSGSGTDFTLTISSLQPEDFATYYCAQNLELPFTFGQGTKVEIKR
notes: also called hz31C8-1.1; hz31C81-1.1
[1]
  IC50: 1.89 nM
[3]
  IC50, blocking of the IL33/ST2 signaling (NFκB luciferase reporter, HEK293T-hST2-NFκB-Luciferase cells): 15.9 nM
  IC50, blocking of the IL33/ST2 signaling (NFκB luciferase reporter, KU812-NFκB-Luciferase cells naturally expressing hST2, 200 pM hIL33): 8 pM
[4]
  EC50: 0.384 nM
[5]
  IC50, blocking of the IL33/ST2-induced IL5 secretion on CD4+ T cells (hIL33 plus IL2 co-stimulation): 0.462 nM

B7: Humanized 31C8-1.2 (antibody, human IgG2, kappa, V domains shown)
VH: QVQLVQSGAKVKKPGATVKISCKASGYIFIDSEMHWVQQAPGKGLEWMGAIDPETGDTVYAKKFKGRVTITADKSSSTAYMELSSLRSEDTAVYYCTGSTTDYYFAYWGQGTLVTVSS
VL: DIQMTQSPSSLSASVGDRVTITCRSSKSLLHSNGIIYLYWYQQKPGKAPKLLIYQLSNLASGVPSRFSSSGSGTDFTLTISSLQPEDFATYYCAQNLELPFTFGQGTKVEIKR
notes: also called hz31C8-1.2; hz31C81-1.2
[1]
  IC50: 2.24 nM
[3]
  IC50, blocking of the IL33/ST2 signaling (NFκB luciferase reporter, HEK293T-hST2-NFκB-Luciferase cells): 20.4 nM
  IC50, blocking of the IL33/ST2 signaling (NFκB luciferase reporter, KU812-NFκB-Luciferase cells naturally expressing hST2, 200 pM hIL33): 6 pM
[4]
  EC50: 0.468 nM
[5]
  IC50, blocking of the IL33/ST2-induced IL5 secretion on CD4+ T cells (hIL33 plus IL2 co-stimulation): 0.366 nM

B8: Chimeric 7D1 (antibody, human IgG2, kappa, V domains shown)
VH: QVQLQQSGAELVRPGASVTLSCKASGYTFTDYEMHWVKQTPVHGLDWIGTIDPETGDTAYNQKFKGRATLTADKSSSTAYMELSSLTSEDSAVYYCTRYSYTNSPYGMDYWGQGTSVTVSS
VL: DVVMTQTPKFLLVSAGDRVTITCKASQSVSNDVAWYQQKPGQSPKLLIYYASNRYTGVPDRFTGSGYGTDFTFTINTVQAEDLAVYFCQQDYSSPYTFGGGTKLEIKR
notes: also called xi7D1
[2]
  IC50, blocking of the IL33/ST2 signaling (NFκB luciferase reporter, HEK293T-hST2-NFκB-Luciferase cells, 50 pM hIL33 protein SEQ ID NO: 8): 0.12 nM
